Publication PMC6373949, “Expression optimization, purification, and functional characterization of cholesterol oxidase from Chromobacterium sp. DS1” (PLoS ONE, 2019)

Substrate: CC(C)CCC[C@@H](C)[C@H]1CC[C@H]2[C@@H]3CC=C4C[C@@H](O)CC[C@]4(C)[C@H]3CC[C@]12C
Assay: purified protein
Type: biochemical, Chromobacterium sp. DS-1
Conditions: 0.1 M potassium phosphate pH 7, 25°C, cholesterol 0-1 mM

B1: cholesterol oxidase from Chromobacterium sp. DS1 (ChO) (Chromobacterium sp. DS-1) (protein)
chain: GRLTCSQPNNFPAEIPLYKQSFKNWAGDIKVDDVWTCAPRSADEVVKVANWAKDNGYKVRARGMMHNWSPLTLAAGVSCPAVVLLDTTRYLTAMSIDASGPVAKVTAQAGITMEALLTGLEKAGLGVTAAPAPGDLTLGGVLAINGHGTAIPAKGERRLAGASYGSISNLVLSLTAVVYDKASGAYALRKFARNDPQIAPLLAHVGRSLIVEATLQAAPNQRLRCQSWFNIPYGEMFAAAGSGGRTFASYLDSAGRVEAIWFPFTSNPWLKVWTVTPNKPLFSRQTDKPFNYPFSDNLPDEVTDLANKILSLGDGKLTPAFGKAQFAAASAGLVATASWDLWGWSKNLLLYVKPTTLRVTANGYAVLTRRENVQRVLNEFVTFYQARVQAYQQQGRYPMNGPVEIRVTGLDDPSEAALSGGVAPALSAIRPRPDHPEWNVAVWLDILTLPGTPYANQFYREIEQWIEANFNGSYAAVRPEWSKGWGYTDQAAWADSAMLQTTIPNAFRAGQPAAANWDAAKAALAAYDPYRLFSSPLLDSLGL
notes: synthetic gene in pET24b(+) NdeI-BamHI; 6xHis tag (N-terminal), no tag removal told; E. coli Rosetta-gami2(DE3); native enzyme 58 kDa
  Km: 31 µM
